Assay results published in the nanobody polyreactivity screen of Harvey et al. (2022).

Assay: yeast display, Sf9 membrane polyspecificity reagent, FACS + sequencing; frameworks hold sequencing errors
In short: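 Galactose-induced (36–48 hours) yeast carrying a synthetic nanobody display library were exposed to 10% biotinylated, detergent-solubilized Sf9 membrane reagent at 4 °C for 1 hour. FACS followed streptavidin microbead enrichment, using low and high (top ~1%) gates for expression (anti-HA) and reagent binding (streptavidin). Colony PCR, MiSeq 2 × 250 sequencing and CDR-length filtering followed. Labels for polyreactivity reflect the gate of origin.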

| Sequence | polyreactivity (PSR sort gate) |
| --- | --- |
| QVQLVESGGGLVQAGGSLRLSCAASGRIFHYNAMGWYRQAPRKERELVAAISTGGSTNYADSVKGRFTISRDNAKNTVYLQMNSLKPEDTAVYYCAADHPVTYPTSKFDYWGQGTQVTVSS | low polyreactivity |
| QVQLVESGGGLVQAGGSLRLSCAASGLTSVTYAMGWYRQAPGKERELVAAITSRAGSTYYADSVKGRFTISRDNAKNTVYLQMNSLKPEDTAVYYCAKDIIRKVYAGYVGRYDYWGQGTQVTVSS | low polyreactivity |
| QVQLVESGGGLVQEGGSLRLICAASGLIFPRYSMGWYRQAPGKERELVAAITRGGSTYYADSVKGRFTISRDNAMNTVYLQMNSLKQEDTAVSYCNAELPVHWSWYVYWGQGTQVTVSS | low polyreactivity |
| QVQLVESGGGLVQAGGSLRLSCAASGFIFRYYARGWYRQAPGKERELVAAITSTGRTYYADSVKGRFTISRDNAKNTVYLQMNSLKPEDTAVYYCAKAWLRWGEDYWGQGTQVTVSS | low polyreactivity |
| QVQLVESGGGLVQAGGSLRLSCAASGRIFSVYAMGWYRQAPGTERELVAVITTSGGSTYYADSVKGRFTISRGNAKNTVYLQMNSLKPEDTAVYYCNAEPWSYAIGSYEYWGQGTQVTVSS | high polyreactivity |
| QVQLVESGGGLVQAGGSLRLSCAASGRIFPVNAMGWYRQAPGTERELVATISSGDITNYAHSVKGRFTISRDNAKNTVYLQMNSLKPEDTAVYYCAADYTWRAWTYYGIKYNYWGQGTQVTVSS | low polyreactivity |
| QVQLVESGGGLVQAGGSLRLSSAASGLTFYRNAMGWYRQAPGKERELVAGISSSGASTYYADSVKGRFTISRDNAKNTVYLQMNSLKPEDTAVYYCAVRFYGRYLRYNYWGQGTQVTVSS | high polyreactivity |
| QVQLVESGGGLVQAGGSLRLSCAASGFTFTPNAMGWYRQAPGKERELVAAITSDGTTYYADSVKGRFTISRDNAKNTVYLQMNSLNPEDTAVYYCAADGGISAGANSGYDYWGQGTQVTVSS | high polyreactivity |
| QVQLVESGGGLVQAGGSLRLSCAASGRIFRKYVMGWYRQAPGKERELVASITTSGDSTYYADSVKGRFTISRDNAKNTVYLQMNSLKPEDTAVYYCAARSYRGRRYDYWGQGTQVTVSS | high polyreactivity |
| QVHLVESGGGLVQAGGSLRLSCAASGRIFGRNAMGWYRQAPGQERELVAAITSGSSTYYADSVKGRFTISRDNAKNTVYLQMNSLKPEDTAVYYCAARTIGYHYTGGYGYWGQGTQVTVSS | high polyreactivity |
| QVQLVESGGGLVQAGGILRLSCAASGIIFGYYAMGWYRQAPGKERELVAAISSIGGSTYYADSVKGRFTISRDNAKNTVYLQMNSLKPEDTAVYYCAAKYYGRYYRYLGSSFDYWGQGTQVTVSS | high polyreactivity |
| QVQLVESGGGLVQAGGSLRLSCAASGRTFVSNALGWYRQAPGKERELVAAISSSGGSTYYADSVKGRFTISRDNAKNTVYLQMNSLKPEDPAVYYGATYPLYSKYRYDHWGQGTQVTVSS | high polyreactivity |
| QVQLVESGGGLVQAGGSLRLSCAASGSISVVNMGWYRQAPGKERELVASITSSGSTTYADSVKGRFTISRDNAKNTVYLQMNSLKPEDTAGYYCAASSTGYGGSTYYYWGQGTQVTVSS | low polyreactivity |
| QVQLVESGGGLVQAGGSLRLSCAASGSNFFSYAMGWYREAPGKERELVAAIDYSGGGTYYADSVKGRFTISRDNAKNTVYLQMNSLKPEDTAVYYCNSDTEVWADTFISYRALNYWGQGTQVTVSS | low polyreactivity |
| QVQLVESGGGLVQAGGSLRLSCAASGFTFKYYAMGWYRQAPGKERELVAAITWSGGSTYYADSVKGRFTISRDNAKNTVYLQMNSLKPEDTAVYYCNAKVYQISRYGYWGQGTQVTVSS | high polyreactivity |
| QVQLVESGGGLVQAGCILRLSCDASGRTFAPYAMGWYRQAPGKAWELVAAITNGGSPSYADSVKGRFTISRDNAKNTVYLEMNSLKREDTAVFYCAADIVSSTDYPFEYWGQGTQVTVSS | low polyreactivity |
| QVQLVESGGGIVQAGGSLRLSCAASGFIFNTNAMGWYRQAPGKERELVAGISRSGVRTYYADSVKGRFTISRDNAKNTVYLQMNSLKPEDTAVYYCAATSLPRYYYWGQGTQVTVSS | low polyreactivity |
| QVQLVESGGGLVQAGGSLRLSCAASGITFLHYAMGWYRQAPGKERELVARITYSGSSTYYADSVKGRFTISRDNAKNTVYLQMNSLKPEDTAVYYCNARASWGRWSRTGTPRYDYWGQGTQVTVSS | high polyreactivity |
| QVQLVESGGGLVQAGGSLRLSCAASGGTFRVYAMGWYRQAPGKERELVAAITGRGGSTYYADSVKGRFTISLDNAKNTVDLQMNSLKPEDTAVYYCAKDPVTTYYKYDYWGQGTQVTVSS | low polyreactivity |
| QVQLVESGGGLVQAGVSLRLSCAASGRIFPSYAMGWYRQAPGKEREMVAAITSSDSTYYADSVKGRFTISRDNAKNTVYLQMNSLKPDDTAVYYCAAAYSYSGWWWFGYWGQGTQVTVSS | high polyreactivity |
| QVQLVESGGSLVQAGGSLRLSCAASGRIFITNAMGAYRQAPGKERELVAAIRRRGGNTYYADSVKGRFTISRDNAKNTVYLQMNSLKPEDTAVYYCAVYPRPYKYNYWGQGTQVTVSS | high polyreactivity |
| QFQLVESGGGLVQAGGSLRLSCAASGSTFRHNAMGWYRQASGKEREWVATIRTSGGTTYYADSVKGRFTISRDNAKNTVYLQMNSLKPEDTAFYYCAKDALFIDGGGGYDYWGQGTQVTVSS | low polyreactivity |

| Sequence | polyreactivity (PSR sort gate) |
| --- | --- |
| QVQLVESGGGLVQAGGSLRLSCAASGRIYWNTMGWYRPAPGKERELVASISTGGGRTYYADSVKGRFTISRDNAKNTVYLQMNSLKPEDTAVYYCAARRGAGYSRFNYWGQGTQVTVSS | high polyreactivity |
| QVQLVESGGGLVQAGGSLRLSCAASGRISRLNAMGWYRQAPGKERELVATISGRGGGTYYADSVKGRFTISRDNAKNTVYLQMNSLKPEDTAVYYCNRRWFTRYDYWGQGTQVTVSS | high polyreactivity |
| QVQLVESGGGLVQAGGSLRLSCAASGFIFSRNVMGWYRQAPGKDRELVAAISRSGGSTYYADSVKGRFTISRDNAKNTVYLQMNSLKPEDTAVYYCAAVRRVYSQNDYWGQGTQVTVSS | high polyreactivity |
| QVQLVDSGGGLVQAGGSLGLSCAASGSIFRNYAMGWYRQAPGKERELVAAISYRVGRTYYADSVKGRFTISRDNAKNSVYLQMNSLNPEDTAVYYCAADSRSPGHDYWGQGTQVTVSS | low polyreactivity |
| QVQLVESGGGLVQAGGSLRLSCAASGSIYSHYAMGWYRQAPGKERELVAAITKSGSTTYYADSVKGRFTSSRDNAKNTVYLQMNSLKPEDTAVYDCWGQGTQVTVSS | low polyreactivity |
| QVQLVESGGGLVQAGGSLRLSCAASGYIFTIYAMGWYRQAPGKERELVAAITWSGATTYYADSVKGRFTISRDNAKNTVYLQMNSLKPEDTAVYYCNADYWHYYEDYDSWGQGTQVTVSS | low polyreactivity |
| QVHLVESGGGLVQAGGSLLLSCAASGIIFSYYAMGWYRQAPGKERELVAAISRSGVRPYYADSVKGRFTISRDNAKHTVYLQMYSLKPEDTAVYYCNAEFSPYPYDYWGQGTQVSVSS | high polyreactivity |
| QVQLVESGGGLVQAGGSLRLICAASGSTFEYSTMGWYRPAPGKERELVAAINSSGGRTYYADSVKGRFTISRDNAKNTVYLQMNSLKPEDTAVYYCNARWRSGPRAYDYWGQGTQVTLSS | high polyreactivity |
| QVQLVESGGGLVQAGGSLRLSCAASGSIFRANVLGWYRKAPGKERELVAAISRGGGTTYYADSVKGRFTISRDNAKNTVYLQMNSLKPEDTAVYYCAALGHYRSNNNVDMDYWGQGTQVTVSS | high polyreactivity |
| QVQLVESWGGLVQAGGSLRLSCAASGSTFGYYAMGWYRRAPGNEMELVAALSSSSSTNYADSVKGRFTISRDNAMNTVYLQMNRLIPEETAVYYCASDPYWLHWTFDYWGQGSQVTVSS | low polyreactivity |
| QVQLVESGGGLVQAGGSLRLSCAASGNIFYRNAMGWYRQAPGKERELVAGITTSGDSTYYADSVKGRFTISRDNAKNTVYLQMNSLKPEDTAVYYCAASSHRYKYSSSYYYWGQGTQVTVSS | high polyreactivity |
| QVQLVESGGGLVQAGGSLRLSCAASGSIFLWYAMGWSRQAPGKERELVAALTYSGGTTYYADSVKGRFTISRDNAKNTVYLQLNSLKPEDTAVYYCAKRTAVWTSGGYRKRDYWGQGTQVTVSS | high polyreactivity |
| QVQLVESGGGLVQAGGSLRLSCAASGRTFPGYAMGWYRQAAGTERELVAGISYRGGSTYYADSVKGRFTISRDNAKNTVYLQMNSLKPEDTAVYYCARDYSRHKGDYWGQGTQVTVSS | low polyreactivity |
| QVQLVESGGGLVQAGGSLRLSCAASGRTCIDKAMGWYRQAPGKERELVAAITKGARTYYADSVKGRFTISRDNAKNTVYLQMISLKPEDTGVYYCASVSYTQSHAYWGTGYRYGYWGQGTQVTVSS | high polyreactivity |
| QVQLVESGGGLVQAGGSLRLSCAASGRTFDVYAMGWYRQAPGKERELVATISYRSARTYYADSVKGRFTISRDNAKNTVYLQMNSLKPEDTAVYYCNAQSWRLYGHCYYWGQGTQVTVSS | high polyreactivity |
| QVQLVESGGGLVQAGGSLRLSCAASGFTFRKNAMGWYRHAPGKERELVAVISSSGGSTSYADSVKRRFTISRDNAKNTVYLQMNSLKPEDTAVYYCAAGSSRLRALYNYWGQGSQVTVSS | high polyreactivity |
| QVQLVESGGGLVQAGGSLRLSCAASGIGCYRQAPGKERELVAAINWSGGNTYYADSVKGRFTISRDNAKNTVYLQMNSLKPEDTAVYYCNAVVWVEVPGDYWGQGTQVTVSS | low polyreactivity |
| QVQLVESGGRLFQAGGSLRLSCAASGRTWGYEMGWYRQATGKERELVAAIRNGASTYYADSVKGRFTISRDNAKKTVYFHMNSRKPEDTAVYYCDADYTVRVVATYDYWGQGTQVTVSS | low polyreactivity |
| QVQLVESGGGLVQAGGSLRLSCAASGSIFDVNTMGWYRQAPGKERELVAAISRGGSTNYADSVKGRFTISRDNAKNTVYLQMNSLKPEDTAVYYCNKRYQNQYDYWGQGTQVTVSS | low polyreactivity |
| QVQLVESGGGLVQAGGSLRLSCAASGGIFGYYAMGWYRQAPGKEREFVAAISVSGGSTYYADSVKGRFTISRDNAKNTVYLQMNSLKPEDTAVYYCAADVIVLRPGEYDYWGQGTQVTVSS | low polyreactivity |
| QVQLVESGGGLVQAGGSLRLSCAASGLTFSYNAMGWYIQAPGTERELVAAINWSGGSTYYADSVKGRFTISRDNAKNTVYLPMNSLKPEDTAVYYCAADIYSKGGRGLYYWGQGTQLTVSS | high polyreactivity |
